Laboratory results reported in patent publication US20160152995A1, “METHODS AND COMPOSITIONS TO IMPROVE THE SPREAD OF CHEMICAL SIGNALS IN PLANTS” (PIONEER HI-BRED INTERNATIONAL, INC., priority 2013, published 2016).

Experiments:
[1] = system: E. coli assay strain Km3; type: cell-based
Procedure: Library L6 was assembled, rescued, ligated into pVER7314, transformed into E. coli KM3 and plated out onto LB carbenicillin/kanamycin, and carbenicillin only control media as before. Library plates were then picked into 42 384-well microtiter plates (˜16,000 clones) containing 60 μl LB carbenicillin (Cb) broth per well. After overnight growth at 37° C. the cultures were stamped onto M9 assay plates containing no inducer, 0.2 ppm, and 2.0 ppm chlorsulfuron as test inducer. Following incubation at 30° C. for ˜48 hrs, putative hits responding to chlorsulfuron treatment as determined by increased blue colony color were re-arrayed into six 96-well microtiter plates and used to stamp a fresh set of M9 assay plates to confirm the above results. For a more detailed analysis of the relative induction by chlorsulfuron, digital photographs were taken of the plates after various time points of incubation at 30° C. and colony color intensity measured using the digital image analysis freeware program ImageJ (Rasband, US National Institutes of Health, Bethesda, Md., USA, rsb.info.nih.gov/ij/, 1997-2007). […] From this analysis sequence-activity relationships were derived. […] Briefly, C at position 100, and Q at positions 108 and 109 strongly correlated with activation, while R at position 138, L at position 170, and A or G at position 173 were highly preferred in clones with the lowest background activity. […] This information will aid in the design of further libraries to improve responsiveness to chlorsulfuron.
Library L8 construction and screening. Fourth round shuffling incorporated the best diversity from Rd3 shuffling (BB1860) as well as computational diversity (Table 14). As diversity was very high the library oligo mix was spiked into the parental hit variant oligo mix (5, 10, and 25% mixes) to titer down the number of residue changes per clone. In addition, to varying residues for Cs activity, seven residues (C68, C86, C88, C121, C144, C195, and C203) were varied with TetR family phylogenetic substitutions in an attempt to reduce the number of cysteine residues in the repressor. The PCR assembled libraries were cloned Sac1/Asc1 into pVER7334. This plasmid encodes PBAD promoter controlled expression of a plant optimized TetR DNA binding domain fused to the wt ligand binding domain of TetR(B) encoded by native Tn10 sequence on a Sac1 to Asc1 fragment. Approximately 15,000 clones were screened for blue colony color on the M9 Xgal assay plates +/−200 ppb Chlorsulfuron (Cs). Clones were ranked by ratio of color with inducer after 24 hrs incubation over colony color without inducer for 48 hrs of incubation. The sequence trend in the overall larger population of hits (first re-array) was that L55, R104, W105 and L170 were maintained while the C144A substitution was highly preferred. Sequence trends within the hit population were then noted with respect to repression, induction and fold induction (which corrects for leakiness).
Mutagenesis reactions were transformed into library strain Km3 and 96 colonies tested for substitution by DNA sequence analysis. Substitutions representing each possible residue at each position were then re-arrayed in triplicate onto M9 X-gal assay plates with 0, 20 and 200 ppb Chlorsulfuron. Plates were incubated at 37° C. for 24 and 48 hrs prior to imaging. Residue substitutions were then ranked by activation (emphasis on 20 ppb Cs) and repression characteristics (emphasis on 48 hr time point). The mutation with the greatest impact on activity was substitution of residue N82 to phenylalanine or tyrosine. […] All other preferred substitutions shown in Table 18 either improved repression or improved sensitivity to inducer without compromising repressor function. Certain residues were indispensible to function such as R104, W105, and W174 as substitutions were not allowed. Other residue positions such as R138 and K177 were also flagged as critical since functional substitutions were extremely limited. […]

[2] = system: E. coli assay strain Km3; assay: Liquid B-galactosidase assays of chlorsulfuron repressor hits (induction and repression)
Procedure: In order to create new diversity for shuffling the top clone from CsL3 was subjected to error prone PCR mutagenesis using Mutazyme (Stratagene). The mutated PCR product encoding the CsR ligand binding domain was inserted into library expression vector pVER7334 as a Sac1 to Asc1 fragment, transformed into library strain Km3 and plated onto LB+40 ug/ml Kanamycin and 50 ug/ml Carbenecillin. Approximately 10,000 colonies were then replica plated onto M9 Xgal assay medium +/−20 ppb Cs. Putative hits were then re-arrayed and replica plated onto the same assay medium. Performance was gauged by the level of blue colony color after 24 hrs incubation on inducer (induction) and 72 hrs incubation without inducer (repression). The top hits were then subjected to liquid B-galactosidase assays for quantitative assessment (Table 21).
Seventh round library CsL4.2 was designed based on the best diversity from CsL3 and CsL3-MTZ library screens (Table 14). The library was assembled with oligonucleotides shown below in Table 22. The first and last primers were used as rescue primers. CsL4.2 included a C-terminal 6×His-tag extension to facilitate protein purification. The library was assembled and cloned into vector pVER7334 Sac1 to Asc1, transformed into library assay strain Km3 and plated onto LB+40 ug/m1 Kanamycin and 50 ug/ml carbenecillin. Approximately 8,000 colonies were re-arrayed into 384-well format and replica plated onto M9 Xgal assay medium +/−2 ppb Cs. Putative hits were re-arrayed in 96-well format onto the same media for re-testing. Confirmed hits were then tested for induction and repression aspects in liquid culture using B-galactosidase assays.
Mutagenesis reactions were transformed into E. coli assay strain Km3 and plated onto LB+50 ug/ml Carbenecillin. Colonies were then re-arrayed into 384 well format and replica plated onto M9 Xgal assay medium +/−5 ppb Chlorsulfuron. Putative hits were then re-arrayed and analyzed by B-galactosidase assays relative to the parent clones (FIG. 10).

[3] = system: β-gal background activity; assay: First and second round library screen (L1, L2) for induction by sulfonylurea ligands, β-gal colony assay; type: cell-based, E. coli; settings: for Inducer preference: β-gal colony assay, L2 library screened with each ligand at 2 ppm, numbers are the patent's inducer ligand numbers, atc for wt
From the text: The original library was designed to thifensulfuron, but once induction activity was established with other SU compounds having potentially better soil and in planta stability properties than the original ligand, the evolution process was re-directed towards these alternative ligands. Of particular interest were herbicides metsulfuron, sulfometuron, ethametsulfuron and chlorsulfuron. For this objective, parental clones L1-9, -22, -29 and -44 were chosen for further shuffling. Clone L1-9 has strong activity on both ethametsulfuron and chlorsulfuron; clone L1-22 has strong sulfometuron activity; clone L1-29 has moderate metsulfuron activity; and clone L1-44 has moderate activity on metsulfuron, ethametsulfuron and chlorsulfuron. (Data not shown.). No clones found in the initial screen were exceptionally reactive to metsulfuron. These four clones were also chosen due to their relatively strong repressor activity, showing low β-gal background activity without inducer. Strong repressor activity is important for establishing a system which is both highly sensitive to the presence of inducer, and tightly off in the absence of inducer.
Based on the sequence information from parental clones L1-9, -22, -29 and -44, two second round libraries were designed, constructed and screened. The first library, L2, consisted of a ‘family’ shuffle whereby the amino acid diversity between the selected parental clones was varied using synthetic assembly of oligonucleotides to find clones improved in responsiveness to any of the four new target ligands.
The L2 oligonucleotides were assembled, cloned and screened as per the protocol described for library L1 except that each ligand was tested at 2 ppm to increase the stringency of the assay, which is a 10-fold reduction from 1st round library screening concentration.

[4] = library L1 initial screen, data not shown

B1: L8-3F01: library L8 chlorsulfuron repressor hit, parent for saturation mutagenesis (protein)
chain: MARLDKSKVINSALELLNEVGIEGLTTRKLAQKLGVEQPTLYWHVKNKRALLDALAIEMMDRHQTHYLPLEGESWQDFLRNNAKSCRRALLSHRDGAKVCLGTRWTEQQYETAENMLAFLTQQGFSLENALYAVSAVRVFTLGAVLFDQESQVAKEERETPTTDSMPPLLRQAWELKDHQGAEPAFLFGLELIIAGLEKQLKRESGS
modifications: Sulfonylurea responsive repressor
notes: library L8 chlorsulfuron repressor hit, parent for saturation mutagenesis
**Q.** What does the source list for B1?
**A.** F. IND = fold induction (IND/REP) (Colony Assay Results) ([1]; CsL3 hits, 20 ppb Cs vs no inducer): 2.5; REP = repression in absence of inducer (Colony Assay Results) ([1]; CsL3 hits, M9 Xgal colony color, 0 ppb Cs): 0.7; IND = induction with 20 ppb CS (Colony Assay Results) ([1]; CsL3 hits, M9 Xgal colony color, 20 ppb Cs): 1.6; IND = induction with 200 ppb Cs at 24 hrs (blue colony color intensity thru ImageJ analysis) ([1]; library L8 hits, M9 Xgal colony assay, 200 ppb Chlorsulfuron, 24 hrs): 1.7; F. IND = fold induction: induction with 200 ppb Cs at 24 hrs/repression at 48 hrs ([1]; library L8 hits, M9 Xgal colony assay, ratio IND (200 ppb Cs, 24 hrs) / REP (48 hrs)): 3.0; REP = repression measured without inducer after 48 hrs (blue colony color intensity thru ImageJ analysis) ([1]; library L8 hits, M9 Xgal colony assay, without inducer, 48 hrs): 0.6; F. IND = fold induction (IND/REP) (B-galactosidase assay) ([2]; CsL3-MTZ hits, 20 ppb Cs vs no inducer): 1; IND = induction with 20 ppb CS (B-galactosidase assay) ([2]; CsL3-MTZ hits, liquid B-galactosidase assay, 20 ppb Cs): 8; REP = repression in absence of inducer (B-galactosidase assay) ([2]; CsL3-MTZ hits, liquid B-galactosidase assay, no inducer): 7; F. IND = fold induction (IND/REP) (B-galactosidase) ([2]; CsL4.2 hits, 20 ppb Cs vs no inducer): 2.0; IND = induction with 20 ppb CS (B-galactosidase) ([2]; CsL4.2 hits, liquid B-galactosidase assay, 20 ppb Cs): 0.9; REP = repression in absence of inducer (B-galactosidase) ([2]; CsL4.2 hits, liquid B-galactosidase assay, no inducer): 0.4

B2: clone L1-29: SuR polypeptide, SEQ ID NO:10 (protein)
chain: MGSRLDKSKVINSALELLNEVGIEGLTTRKLAQKLGVEQPTLYWHVKNKRALLDALAIEMMDRHQTHFCPLEGESWQDFLRNTAKSMRCALLSHRDGAKVWLGTRWTEKQYETPENMLAFLCQQGFSLENALYAWSAVCNFTLGCVLSDQERQVAKEERETPTTDSMPPLLRQAWELSDHQGAEPAFLFGLELIICGLEKQLKCESGS
modifications: Sulfonylurea responsive repressor
**Q.** How did the “induction activity on metsulfuron” value [3, 4] turn out when B2 was run?
**A.** Its value is “moderate”.

**Q.** What about the Inducer preference [3] of the same molecule?
**A.** The Inducer preference was 9 (weak).

B3: clone L1-22: SuR polypeptide, SEQ ID NO:7 (protein)
chain: MGSRLDKSKVINSALELLNEVGIEGLTTRKLAQKLGVEQPTLYWHVKNKRALLDALAIEMMDRHHTHFCPLEGESWQDFLRNTAKSYRCALLSHRDGAKVCLGTAITEKQYETKENNLAFLCQQGFSLENALYARQAVRVFTLGCVLFDQEMQVAKEERETPTTDSMPPLLRQASELLDHQGAEPAFLFGLELIICGLEKQLKSESGS
modifications: Sulfonylurea responsive repressor
**Q.** Which “induction activity on sulfometuron” value [3, 4] does the source give for B3 here?
**A.** Its value is “strong”.

**Q.** What about the Inducer preference [3] of the same molecule?
**A.** Its Inducer preference is 3.

B4: clone L1-44: SuR polypeptide, SEQ ID NO:13 (protein)
chain: MGSRLDKSKVINSALELLNEVGIEGLTTRKLAQKLGVEQPTLYWHVKNKRALLDALAIEMLDRHATHFCPLEGESWQDFLRNNAKSYRCALLSHRDGAKVYLGTAVTEKQYETAENQLAFLCQQGFSLENALYAVKAVAGFTLGCVLWDQESQVAKEERETPTTASMPPLLRQAVELADHQGAEPAFLFGLELIICGLEKQLKCESGS
modifications: Sulfonylurea responsive repressor
**Q.** With B4 as the molecule, how does the “induction activity on chlorsulfuron” value [3, 4] read?
**A.** The value was “moderate”.

**Q.** And the “induction activity on ethametsulfuron” value [3, 4]?
**A.** The value was “moderate”.

**Q.** What about the “induction activity on metsulfuron” value [3, 4] of the same molecule?
**A.** Its value is “moderate”.

**Q.** What about the Inducer preference [3] of the same molecule?
**A.** The Inducer preference was 9 (weak).
